Source: PMC11075064

Molecular target: KCC2 (SLC12A5), neuron-specific K+/Cl- transporter (mouse (endogenous in brain)) (UniProt Q91V14)
Test: co-IP

Sequence of UniProt Q91V14 (Q91V14 whole entry): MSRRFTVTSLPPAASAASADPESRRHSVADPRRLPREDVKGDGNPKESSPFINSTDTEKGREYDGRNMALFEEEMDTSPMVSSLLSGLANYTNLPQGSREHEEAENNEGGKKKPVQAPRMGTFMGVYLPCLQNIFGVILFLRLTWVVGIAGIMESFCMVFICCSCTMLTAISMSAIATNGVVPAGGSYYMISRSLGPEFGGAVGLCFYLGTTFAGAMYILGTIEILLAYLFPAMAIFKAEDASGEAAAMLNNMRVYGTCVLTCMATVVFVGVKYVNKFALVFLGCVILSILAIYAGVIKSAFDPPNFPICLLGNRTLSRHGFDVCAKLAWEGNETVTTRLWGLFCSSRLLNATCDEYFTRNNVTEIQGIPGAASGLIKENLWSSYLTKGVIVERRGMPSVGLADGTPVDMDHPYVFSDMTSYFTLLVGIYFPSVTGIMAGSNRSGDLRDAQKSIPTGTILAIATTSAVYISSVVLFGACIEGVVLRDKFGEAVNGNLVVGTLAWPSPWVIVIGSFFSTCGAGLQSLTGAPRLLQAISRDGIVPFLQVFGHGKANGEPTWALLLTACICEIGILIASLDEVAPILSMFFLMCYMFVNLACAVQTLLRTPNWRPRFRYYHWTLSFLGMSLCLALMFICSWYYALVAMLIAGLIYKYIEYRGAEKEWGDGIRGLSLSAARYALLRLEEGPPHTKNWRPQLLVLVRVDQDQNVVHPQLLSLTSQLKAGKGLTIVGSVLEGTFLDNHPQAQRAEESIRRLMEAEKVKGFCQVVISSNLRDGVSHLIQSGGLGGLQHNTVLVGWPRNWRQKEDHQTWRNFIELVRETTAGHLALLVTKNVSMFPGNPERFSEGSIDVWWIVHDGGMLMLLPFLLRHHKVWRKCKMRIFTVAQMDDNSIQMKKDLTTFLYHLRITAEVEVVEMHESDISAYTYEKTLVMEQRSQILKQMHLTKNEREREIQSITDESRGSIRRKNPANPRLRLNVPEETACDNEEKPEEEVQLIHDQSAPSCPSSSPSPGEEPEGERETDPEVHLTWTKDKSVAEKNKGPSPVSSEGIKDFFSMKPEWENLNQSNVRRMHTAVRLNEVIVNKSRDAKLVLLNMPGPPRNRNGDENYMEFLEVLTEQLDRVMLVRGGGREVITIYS

In the case of “catalytic subunit of protein phosphatase-1 (PP1) (from UniProt P62137 1-330) (enzyme)”, the ratio of PP1/KCC2 immunoreactivity in LMTK3 KO mice, percent of WT is reported as 28.6 % of WT.
